Assay results published in patent US20190161551A1 (Regeneron, published 2019).

Key:
[1] = biological target: T1, rat TrkB extracellular domain expressed with a C-terminal myc-myc-hexahistidine tag (rat, UniProt Q63604 32-429); test: SPR Biacore T200, mAb captured (anti-mFc), 25C
T1 construct: also called rTrkB.mmH; rTRKB.mmH
Procedure: (§1) Equilibrium dissociation constants (KD values) for TrkB binding to purified anti-TrkB monoclonal antibodies were determined using a real-time surface plasmon resonance biosensor using a Biacore T200 instrument. All binding studies were performed in 10 mM Hepes pH 7.4, 150 mM NaCl, 3 mM EDTA, and 0.05% v/v Surfactant Tween-20 (HBS-ET running buffer) at 25° C. The Biacore sensor surface was first derivatized by amine coupling with rabbit anti-mouse Fc polyclonal antibody (GE Healthcare #BR-1008-38) to capture anti-TrkB monoclonal antibodies. Binding studies were performed on the following TrkB reagents; human TrkB extracellular domain expressed with a C-terminal myc-myc-hexahistidine tag (hTrkB.mmH; SEQ ID NO: 76; NP_001018074.1), mouse TrkB extracellular domain expressed with a C-terminal myc-myc-hexahistidine tag (mTRKB.mmH; SEQ ID NO: 79; NP_001020245), and rat TrkB extracellular domain expressed with a C-terminal myc-myc-hexahistidine tag (rTRKB.mmH; SEQ ID NO: 84; XP_002721319.1). […] Kinetic association (kₐ) and dissociation (kd) rate constants were determined by fitting the real-time binding sensorgrams to a 1:1 binding model with mass transport limitation using Scrubber 2.0c curve-fitting software. Binding dissociation equilibrium constants (KD) and dissociative half-lives (t½) were calculated from the kinetic rate constants as: […]

[2] = biological target: T2, human TrkB extracellular domain expressed with a C-terminal myc-myc-hexahistidine tag (human, UniProt Q16620 32-430); test: SPR Biacore T200, mAb captured (anti-mFc), 25C
T2 construct: also called hTrkB.mmH; hTRKB.mmH
Procedure: as §1

[3] = biological target: T3, mouse TrkB extracellular domain expressed with a C-terminal myc-myc-hexahistidine tag (mouse, UniProt P15209 32-429); test: SPR Biacore T200, mAb captured (anti-mFc), 25C
T3 construct: also called mTrkB.mmH; mTRKB.mmH
Procedure: as §1

mouse TrkB.hFc = biological target: T4, mouse TrkB.hFc (mouse); test: BLI Octet, captured mTrkB.hFc, 300 nM mAb (NT-4 run)
T4 construct: also called mTrkB.hFc; mTrkB-hFc
Procedure: Blocking of BDNF or NT-4 from binding to TrkB by anti-human TrkB or anti-mouse TrkB antibodies was evaluated using a real-time bio-layer interferometry (BLI) based Octet HTX instrument. The entire study was performed in 10 mM HEPES pH 7.4, 300 mM NaCl, 3 mM EDTA, 1 mg/mL BSA, 0.02% NaN3 and 0.05% v/v Surfactant Tween-20 (HBS-EBT running buffer) at 25° C. All the samples were dispensed in a 384 tilted well plate and the plate was placed on the orbital shaker with the shake speed of 1000 rpm. hTrkB.mFc was captured on anti-mFc (AMC) Octet sensors while hTrkB.hFc or mTrkB.hFc were captured on anti-hFc (AHC) Octet sensors by dipping in wells containing 10 μg/mL of TrkB reagents for 2 minutes. hTrkB.mFc or hTrkB.hFc captured Octet biosensors were saturated by dipping in wells containing 300 nM of different TrkB mAbs for 4 minutes followed by dipping Octet biosensors in wells containing 20 nM of BDNF, hNT-4, or mNT-4 for 2 minutes. Binding of BDNF, hNT-4, or mNT-4 to the complex of TrkB and different TrkB mAbs was determined using Scrubber 2.0c analysis software.

[4] = biological target: T1, rat TrkB extracellular domain expressed …; test: blocking ELISA: constant rat TrkB.mmh (REGN1808) pre-mixed with antibody, binding to plate-coated BDNF; half-maximal enhancement of the signal, not blockade
Procedure: Experiments were carried out using the following procedure. Human BDNF was coated at a concentration of 0.5 μg/mL (for blocking mouse TrkB.hFc interaction) or 0.3 μg/mL (for blocking rat TrkB.mmh interaction) in PBS on 96-well microtiter plate and incubated overnight at 4° C. […] In a 96-well dilution plate, 850 pM mouse TrkB.hFc or rat TrkB.mmh was mixed with the three-fold serially diluted anti-mouse TrkB antibodies and control antibody. The final antibody concentrations ranged from 1.69 pM to 100 nM. The protein-antibody mix was incubated at room temperature (RT) for 1 hour. The pre-bound mix was then transferred in duplicates to microtiter plates coated with BDNF. […] Plate-bound mouse TrkB.hFc was detected with HRP-conjugated goat anti-human Fcγ fragment specific antibody (Jackson Immunoresearch) and rat TrkB.mmh was detected with HRP-conjugated anti-histidine antibody (Qiagen). […]
The absorbance at 450 nm for each well was recorded and plotted as a function of the concentration of antibody. Data was analyzed in GraphPad Prism software using a four-parameter logistic equation over an 11-point dose response curve and IC₅₀ values were calculated. […] Percent blockade at maximum concentration of the antibody tested was calculated as an indicator of the ability of the antibodies to block the binding of TrkB to BDNF on the plate relative to the baseline of the assay. […]

T2 sequence (Q16620 other isoform, or with tags, fused parts or gaps): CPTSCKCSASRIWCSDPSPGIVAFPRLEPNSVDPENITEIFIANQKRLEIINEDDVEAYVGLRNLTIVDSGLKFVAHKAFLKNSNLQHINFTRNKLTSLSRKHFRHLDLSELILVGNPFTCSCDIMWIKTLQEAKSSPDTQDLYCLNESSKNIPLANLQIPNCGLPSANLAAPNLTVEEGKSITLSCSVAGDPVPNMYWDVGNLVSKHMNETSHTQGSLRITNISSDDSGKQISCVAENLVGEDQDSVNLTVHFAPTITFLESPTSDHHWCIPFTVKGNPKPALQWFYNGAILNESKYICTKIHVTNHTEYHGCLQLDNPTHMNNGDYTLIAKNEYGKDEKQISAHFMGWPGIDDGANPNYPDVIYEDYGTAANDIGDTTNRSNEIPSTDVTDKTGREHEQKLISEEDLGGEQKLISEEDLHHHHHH
T1 sequence (Q63604 other isoform, or with tags, fused parts or gaps): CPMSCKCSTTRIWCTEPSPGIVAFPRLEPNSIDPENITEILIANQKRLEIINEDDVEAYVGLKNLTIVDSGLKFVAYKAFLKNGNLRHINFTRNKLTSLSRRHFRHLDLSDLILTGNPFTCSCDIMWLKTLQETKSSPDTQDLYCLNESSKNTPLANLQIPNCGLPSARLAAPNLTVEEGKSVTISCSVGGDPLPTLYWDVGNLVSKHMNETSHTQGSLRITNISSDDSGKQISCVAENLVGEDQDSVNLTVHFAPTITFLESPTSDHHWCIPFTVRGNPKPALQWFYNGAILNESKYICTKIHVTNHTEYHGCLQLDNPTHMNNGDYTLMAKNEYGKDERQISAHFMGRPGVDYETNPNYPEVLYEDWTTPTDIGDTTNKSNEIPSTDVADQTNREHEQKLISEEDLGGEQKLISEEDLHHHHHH
T3 sequence (P15209 other isoform, or with tags, fused parts or gaps): as the sequence (Q63604 other isoform, or with tags, fused parts or gaps) above, with M3T, T9S, T10A, I32V, K63R, G84S, T153M, I185L, T394S counted along it
T4 sequence (chain, as listed by the source limits assumed): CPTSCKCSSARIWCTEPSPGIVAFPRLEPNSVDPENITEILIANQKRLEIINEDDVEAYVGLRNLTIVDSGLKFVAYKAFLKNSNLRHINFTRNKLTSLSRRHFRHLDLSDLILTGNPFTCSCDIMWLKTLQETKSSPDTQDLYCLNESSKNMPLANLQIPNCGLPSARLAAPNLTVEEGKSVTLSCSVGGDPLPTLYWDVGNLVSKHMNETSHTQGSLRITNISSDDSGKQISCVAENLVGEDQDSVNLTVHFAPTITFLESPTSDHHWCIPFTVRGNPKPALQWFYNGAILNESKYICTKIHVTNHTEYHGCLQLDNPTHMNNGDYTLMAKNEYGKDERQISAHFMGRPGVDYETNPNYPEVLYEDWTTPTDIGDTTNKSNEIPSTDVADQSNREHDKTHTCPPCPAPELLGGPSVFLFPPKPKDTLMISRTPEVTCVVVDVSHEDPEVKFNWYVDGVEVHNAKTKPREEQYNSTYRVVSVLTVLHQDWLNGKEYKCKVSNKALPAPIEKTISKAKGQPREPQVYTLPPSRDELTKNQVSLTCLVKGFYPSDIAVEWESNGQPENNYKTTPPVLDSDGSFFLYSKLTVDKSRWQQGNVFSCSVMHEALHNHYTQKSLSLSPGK

| 90 nM rTrkB.mmH Bound (RU) [1] | Kd [1] | koff [1] | kon [1] | t½ [1] | 90nM hTrkB.mmH Bound (RU) [2] | binding result [2] | 90 nM TrkB.mmH Bound (RU) [3] | Kd [3] | koff [3] | kon [3] | t½ [3] | mAb Binding (nm) (mouse TrkB.hFc) | EC50 (read off the curve) [4] | Binder |
| --- | --- | --- | --- | --- | --- | --- | --- | --- | --- | --- | --- | --- | --- | --- |
| 33 RU | 8 nM | 0.000632 s⁻¹ | 79000 M⁻¹ s⁻¹ | 18 min | 0 RU | no binding (tested: 90 nM) | 33 RU | 8.49 nM | 0.00063 s⁻¹ | 74100 M⁻¹ s⁻¹ | 18 min | 0.413 nm |  | M2aM14173N (antibody, mouse IgG2a, kappa, V domains shown, Anti-mouse TrkB antibody from hybridoma, mouse IgG2a Fc; also called surrogate anti-mouse TrkB antibody) VH: NVSLVESGGGSVKPGGSLQLSCAASGFTFSSSAMSWIRQTPEMRLEWVATISDRGSYTYYPDSVEGRFTISRDNAKNILYLQMSHLMSEDTAMYYCARGKGEKAYYTAFFAYWGQGSLVTVSA VL: DIQMTQSPASLSASVGETVTITCRASENIYSYLAWYQQKPGKSPHLLVHNAETLAEGVPSRFSGSGSGPQFSLKINSLQPGDSGTYYCQHHYSSPWTFGGGTKLEIKR |
| 33 RU | 26.9 nM | 0.00398 s⁻¹ | 148000 M⁻¹ s⁻¹ | 2.9 min | -2 RU |  | 32 RU | 32.4 nM | 0.00372 s⁻¹ | 115000 M⁻¹ s⁻¹ | 3.1 min | 0.41 nm | ~0.4 nM | M2aM14179N (antibody, mouse IgG2a, kappa, V domains shown, Anti-mouse TrkB antibody from hybridoma, mouse IgG2a Fc; also called surrogate anti-mouse TrkB antibody) VH: EVQLQQSGPELVKPGASVKISCKASGYTLTDYYMNWVKQSHGKSLEWIGDINPNNGGTSYNQKFKGKATLTVDKSSSTAYMELRSLTSEDSAVYYCARGAYYSNYFDYWGQGTTLTVSS VL: DIVMSQSPSSLAVSAGEKVTMSCKSSQSLLNSRTRKNYLAWYQQKPGQSPKLLIYWASTRESGVPDRFTGSGSGTDFTLTISSVQAEDLAVYYCKQSYILFTFGSGTQLEIKR |
|  |  |  |  |  |  |  |  |  |  |  |  | 0.4 nm |  | H1M8037C (antibody, mouse IgG1, kappa, V domains shown, captured by anti-mFc in SPR; also called Comparator; comparator anti-TrkB monoclonal antibody) VH: QVQLVQSGAEVKKPGASVKVSCKASGYTFTNYDIIWVRQAPGQGLEWMGYINPYNDGTKYNEKFKGRVTMTRDTSTSTVYMELSSLRSEDTAVYYCARLLKYRRFRYYAIDYWGQGTTVTVSS VL: DIQMTQSPSSLSASVGDRVTITCRTSENVYSNLAWYQQKPGKAPKLLIYAASNLQSGVPSRFSGSGSGTDYTFTISSLQPEDIATYYCQHFWGSPFTFGQGTKLEIKR |
